Measured values from patent publication US20120329717A1.

Tests used:
[1] = biological target: recombinant N-type (Cav2.2) VGCC α1B-b/α2δ1/β3 expressed in Xenopus oocytes (rat; rabbit) (UniProt Q02294); experiment: cell-based or functional assay
[2] = biological target: recombinant N-type (Cav2.2) VGCC α1B-b/α2δ1/β3 expressed in Xenopus oocytes (rat; rabbit), Q02294; experiment: cell-based or functional assay
Sequence of recombinant N-type (Cav2.2) VGCC α1B-b/α2δ1/β3 expressed in Xenopus oocytes (rat; rabbit), Q02294 (P13806 27-1106, stated change not applied, chain 2 of 2): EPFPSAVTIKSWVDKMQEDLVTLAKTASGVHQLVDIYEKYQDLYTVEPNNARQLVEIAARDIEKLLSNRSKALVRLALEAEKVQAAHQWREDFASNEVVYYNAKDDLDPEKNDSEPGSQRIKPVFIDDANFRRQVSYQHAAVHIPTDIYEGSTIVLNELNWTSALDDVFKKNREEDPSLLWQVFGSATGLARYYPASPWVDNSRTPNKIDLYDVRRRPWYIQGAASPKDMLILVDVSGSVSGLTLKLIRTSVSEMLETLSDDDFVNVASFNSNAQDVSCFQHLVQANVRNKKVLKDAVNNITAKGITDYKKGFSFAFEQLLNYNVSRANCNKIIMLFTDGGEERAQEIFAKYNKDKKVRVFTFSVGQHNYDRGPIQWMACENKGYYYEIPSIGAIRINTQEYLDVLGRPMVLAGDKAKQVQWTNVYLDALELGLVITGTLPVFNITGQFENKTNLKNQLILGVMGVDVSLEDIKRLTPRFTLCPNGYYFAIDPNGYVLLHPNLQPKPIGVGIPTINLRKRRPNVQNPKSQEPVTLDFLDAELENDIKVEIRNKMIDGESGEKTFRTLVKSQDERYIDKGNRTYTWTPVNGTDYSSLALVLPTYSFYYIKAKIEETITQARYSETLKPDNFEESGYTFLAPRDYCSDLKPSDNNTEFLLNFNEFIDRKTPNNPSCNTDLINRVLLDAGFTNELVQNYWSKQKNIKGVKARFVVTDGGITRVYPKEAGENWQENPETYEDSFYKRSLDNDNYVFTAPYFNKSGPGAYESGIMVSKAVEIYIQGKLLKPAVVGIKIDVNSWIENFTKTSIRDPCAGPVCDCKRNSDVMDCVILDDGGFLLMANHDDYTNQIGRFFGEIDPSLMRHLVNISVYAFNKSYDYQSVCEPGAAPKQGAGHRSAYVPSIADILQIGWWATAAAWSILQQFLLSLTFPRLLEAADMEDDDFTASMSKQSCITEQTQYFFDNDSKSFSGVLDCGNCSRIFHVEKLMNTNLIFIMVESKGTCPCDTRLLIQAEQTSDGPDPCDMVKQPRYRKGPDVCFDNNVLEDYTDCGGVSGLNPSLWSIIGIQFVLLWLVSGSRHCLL
Sequence of recombinant N-type (Cav2.2) VGCC α1B-b/α2δ1/β3 expressed in Xenopus oocytes (rat; rabbit), Q02294 (P54287 whole entry, stated change not applied, chain 3 of 2, further chain): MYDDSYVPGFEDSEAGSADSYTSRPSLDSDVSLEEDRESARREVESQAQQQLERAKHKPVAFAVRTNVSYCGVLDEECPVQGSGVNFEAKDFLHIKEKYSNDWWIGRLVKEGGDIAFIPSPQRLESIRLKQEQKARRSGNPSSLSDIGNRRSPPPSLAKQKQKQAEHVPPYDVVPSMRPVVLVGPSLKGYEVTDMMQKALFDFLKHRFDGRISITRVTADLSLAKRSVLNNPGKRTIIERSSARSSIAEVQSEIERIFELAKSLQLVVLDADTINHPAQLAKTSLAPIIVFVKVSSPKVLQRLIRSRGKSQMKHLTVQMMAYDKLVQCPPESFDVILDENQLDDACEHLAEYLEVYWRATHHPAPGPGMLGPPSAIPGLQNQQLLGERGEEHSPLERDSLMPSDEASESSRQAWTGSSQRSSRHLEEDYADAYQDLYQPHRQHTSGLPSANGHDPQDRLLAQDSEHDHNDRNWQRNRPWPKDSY

Sequence of recombinant N-type (Cav2.2) VGCC α1B-b/α2δ1/β3 expressed in Xenopus oocytes (rat; rabbit) (P13806 27-1106, stated change not applied, chain 2 of 2): as the sequence (P13806 27-1106, stated change not applied, chain 2 of 2) above
Sequence of recombinant N-type (Cav2.2) VGCC α1B-b/α2δ1/β3 expressed in Xenopus oocytes (rat; rabbit) (P54287 whole entry, stated change not applied, chain 3 of 2, further chain): as the sequence (P54287 whole entry, stated change not applied, chain 3 of 2, further chain) above

| Molecule | IC50 of inhibition of normalized peak IBa, Xenopus oocytes [1] | time constant of block (τon) at HP -80 mV [1] | time constant of block (τon) at HP -125 mV [1] | IC50 of inhibition of normalized peak IBa, Xenopus oocytes [2] |
| --- | --- | --- | --- | --- |
| ω-conotoxin CVIB (from UniProt P58918 1-25) (peptide) | 12 nM |  |  |  |
| ω-conotoxin CVIE (peptide) | 2.6 nM | 31.5 s | 38.5 s |  |
| CKGKGASCRRTSYDCCTGSCRSGRC (modifications not checked) [ω-conotoxin CVIF] |  |  |  | 19.9 nM |
